Laboratory results as given in US12460006B2, “Antibodies against integrin alpha 11 beta 1” (Momenta Pharmaceuticals, Inc., priority 2019, dated 2025).

T1: α11β1 expressed on the surface of CHO-K1 cells (Homo sapiens, UniProt Q9UKX5)
T1 construct: expressed in transfected cells; host or cells: CHO-K1
T1 sequence (Q9UKX5 23-1188): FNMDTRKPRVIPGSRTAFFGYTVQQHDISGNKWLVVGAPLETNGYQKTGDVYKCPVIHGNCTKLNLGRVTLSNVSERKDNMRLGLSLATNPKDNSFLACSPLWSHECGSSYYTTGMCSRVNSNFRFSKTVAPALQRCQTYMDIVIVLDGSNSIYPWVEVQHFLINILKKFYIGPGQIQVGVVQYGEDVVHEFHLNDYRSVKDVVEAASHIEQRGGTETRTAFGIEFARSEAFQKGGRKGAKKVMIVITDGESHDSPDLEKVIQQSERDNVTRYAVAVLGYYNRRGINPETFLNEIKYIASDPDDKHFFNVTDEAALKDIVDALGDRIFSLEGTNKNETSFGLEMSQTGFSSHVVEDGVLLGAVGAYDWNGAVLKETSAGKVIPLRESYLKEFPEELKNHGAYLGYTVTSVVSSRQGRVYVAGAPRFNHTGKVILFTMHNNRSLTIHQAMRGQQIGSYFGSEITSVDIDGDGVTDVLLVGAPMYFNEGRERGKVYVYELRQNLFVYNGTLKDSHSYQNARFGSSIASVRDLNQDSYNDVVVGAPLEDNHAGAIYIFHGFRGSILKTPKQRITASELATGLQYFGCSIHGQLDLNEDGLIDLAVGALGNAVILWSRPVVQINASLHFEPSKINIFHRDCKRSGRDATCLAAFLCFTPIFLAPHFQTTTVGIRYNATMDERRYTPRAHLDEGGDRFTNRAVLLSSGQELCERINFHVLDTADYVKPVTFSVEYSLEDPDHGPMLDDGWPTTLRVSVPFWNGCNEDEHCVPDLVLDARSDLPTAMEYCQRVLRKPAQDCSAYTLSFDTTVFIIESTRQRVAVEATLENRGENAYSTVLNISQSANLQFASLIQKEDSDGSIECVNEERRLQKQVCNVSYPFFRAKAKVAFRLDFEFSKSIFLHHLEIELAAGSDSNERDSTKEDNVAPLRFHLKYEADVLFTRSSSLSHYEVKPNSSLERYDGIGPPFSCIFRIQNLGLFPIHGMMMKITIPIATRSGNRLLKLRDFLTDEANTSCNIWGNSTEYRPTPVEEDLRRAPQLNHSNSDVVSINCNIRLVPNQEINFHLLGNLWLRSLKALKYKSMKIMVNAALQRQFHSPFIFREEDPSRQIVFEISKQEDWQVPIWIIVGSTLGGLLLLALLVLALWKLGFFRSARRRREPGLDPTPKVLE

B1: 7D8B10: rat anti-α11β1 mAb; VH SEQ ID NO: 153, VL SEQ ID NO: 154 (antibody, V domains shown)
VH: MDLRLTYVFIVAILKGVLCEVKLEESGGGLVQPGMSVKLSCATSGFIFSDYWMEWVRQAPGKGLEWVAEIRNKANNYATYYGKSMKGRFTISRDDSKSIVYLQVNSIRSEDTAIYYCAPNFDYWGQGVMVTVSS
VL: MSPVQSLFLLLLWILGTHGDVVLTQTPPTLSATIGQSVSISCRSSQSLLHSTGNTYLNWLLQRPGQPPQLLIYLVSRLESGVPNRFSASGSGTDFTLKISGIEAEDLGVYYCVQSSHTPYTFGTGTKLELK
B2: 6F9: rabbit anti-α11β1 mAb; heavy chain SEQ ID NO: 183, light chain SEQ ID NO: 184 (antibody)
heavy: METGLRWLLLVAVLKGVQCQSLEESGGDLVKPGASLTLTCTASGSSFSSTYWNCWVRQAPGKGLEWIACINAGSGTTYYASWAKGRFTVSKTSSTTVTLQMTSLTAADTATYFCTRDSDGRFSSGYYFNLWGPGTLVTVSSGQPKAPSVFPLAPCCGDTPSSTVTLGCLVKGYLPEPVTVTWNSGTLTNGVRTFPSVRQSSGLYSLSSVVSVTSSSQPVTCNVAHPATNTKVDKTVAPSTCSKPMCPPPELPGGPSVFIFPPKPKDTLMISRTPEVTCVVVDVSQDDPEVQFTWYINNEQVRTARPPLREQQFNSTIRVVSTLPIAHQDWLRGKEFKCKVHNKALPAPIEKTISKARGQPLEPKVYTMGPPREELSSRSVSLTCMINGFYPSDISVEWEKNGKAEDNYKTTPTVLDSDGSYFLYSKLSVPTSEWQRGDVFTCSVMHEALHNHYTQKSISRSPGK
light: MDTRAPTQLLGLLLLWLPGATFAQVLTQTASPVSAAVGGTVTINCQSSQSVYDNNWLAWYQQKPGQPPKLLIDDASKLTSGVSSRFKGSGSGTQFTLTISGVQCDDAATYYCQGAYYSSGWYWAFGGGTEVVVKGDPVAPTVLIFPPAADQVATGTVTIVCVANKYFPDVTVTWEVDGTTQTTGIENSKTPQNSADCTYNLSSTLTLTSTQYNSHKEYTCKVTQGTTSVVQSFNRGDC
B3: 4E1: rabbit anti-α11β1 mAb; heavy chain SEQ ID NO: 195, light chain SEQ ID NO: 196 (antibody)
heavy: METGLRWLLLVAVLKGVQCQSLEESGGDLVKPGTSLTLSCTASGFSFGSYYYMCWVRQAPGKGLEWIACIDVGSSGDTYYASWVNGRFTISKTSSTTVTLQMTSLTAADTATYFCARDDTAAGGFGNLELWGPGTLVTVSSGQPKAPSVFPLAPCCGDTPSSTVTLGCLVKGYLPEPVTVTWNSGTLTNGVRTFPSVRQSSGLYSLSSVVSVTSSSQPVTCNVAHPATNTKVDKTVAPSTCSKPMCPPPELPGGPSVFIFPPKPKDTLMISRTPEVTCVVVDVSQDDPEVQFTWYINNEQVRTARPPLREQQFNSTIRVVSTLPIAHQDWLRGKEFKCKVHNKALPAPIEKTISKARGQPLEPKVYTMGPPREELSSRSVSLTCMINGFYPSDISVEWEKNGKAEDNYKTTPTVLDSDGSYFLYSKLSVPTSEWQRGDVFTCSVMHEALHNHYTQKSISRSPGK
light: MDTRAPTQLLGLLLLWLPGARCAFELTQTPSSVSEPVGGTVTIKCQASQSIYSYFSWYQQKPGQPPKRLIYQASTLASGVPSRFKGSGSGTDFTLTISDLECADAATYYCQNNYGRGSGSYFFGFGGGTEVVVKGDPVAPTVLIFPPAADQVATGTVTIVCVANKYFPDVTVTWEVDGTTQTTGIENSKTPQNSADCTYNLSSTLTLTSTQYNSHKEYTCKVTQGTTSVVQSFNRGDC
B4: 6C7: rabbit anti-α11β1 mAb; heavy chain SEQ ID NO: 185, light chain SEQ ID NO: 186 (antibody)
heavy: METGLRWLLLVAVLKGVQCQQQLEESGGGLVKPGGTLTLTCKASGIDFSSYYYMCWVRQAPGKGLELIVCIYTSSGGTWYASWVNGRLTISRSTSLNTVDLKMTSLTAADTATYFCARGVYSGSSDYPTRLDLWGQGTLVTVSLGQPKAPSVFPLAPCCGDTPSSTVTLGCLVKGYLPEPVTVTWNSGTLTNGVRTFPSVRQSSGLYSLSSVVSVTSSSQPVTCNVAHPATNTKVDKTVAPSTCSKPMCPPPELPGGPSVFIFPPKPKDTLMISRTPEVTCVVVDVSQDDPEVQFTWYINNEQVRTARPPLREQQFNSTIRVVSTLPIAHQDWLRGKEFKCKVHNKALPAPIEKTISKARGQPLEPKVYTMGPPREELSSRSVSLTCMINGFYPSDISVEWEKNGKAEDNYKTTPTVLDSDGSYFLYSKLSVPTSEWQRGDVFTCSVMHEALHNHYTQKSISRSPGK
light: MDTSTSTALLGLLLLWLTGARCAIEMTQSPPSLSASVGETVRIRCLASEDIYSGISWYQQKPEKPPTLLISGASNLESGVPPRFSGGGSGTDYTLTIGGVQAEDVATYYCLGGYSFSSTGLTFGAGTKVEIKRDPVAPSVLLFPPSKEELTTGTATIVCVANKYFPDVTVTWEVDGTTQTTGIENSKTPQNSADCTYNLSSTLTLTSTQYNSHKEYTCKVTQGTTSVVQSFNRGDC
B5: 18E10F10: rat anti-α11β1 mAb; VH SEQ ID NO: 155, VL SEQ ID NO: 156 (antibody, V domains shown)
VH: MDIRLSLVFLVLFMKGVQCEVQLVESGGGLVQPGRSLKLSCAASRFTFSDYNMAWVRQAPKKGLEWVATIYHDDSGSYYRDSVKGRFTISRNNAKSTLYLQMDSLRSEDMATYYCARHNNGFDYWGQGVMVTVAS
VL: MKWPVRLLVLFFWIPASGGDVVMTQTPVSLPVRLGGQASISCRSSQSLVHSNGNTYLHWYLQKPGQSPQLLINRVSNRFSGVPDRFSGSGSGTDFTLKINRVEPEDLGDYYCLQSTHFPLTFGSGTKLETK
B6: 6G4: rabbit anti-α11β1 mAb; heavy chain SEQ ID NO: 181, light chain SEQ ID NO: 182 (antibody)
heavy: METGLRWLLLVAVLKGVQCQQQLEESGGGLVKPGGTLTLTCKASGVALNPYYYMCWVRQAPGKGLEWIACVDADSSGSTYYASWAKGRFTISKTSSTTVTLKMTSLTAADTATYFCARESVDYSSVGIGYVHGTDGLWGPGTLVTVSSGQPKAPSVFPLAPCCGDTPSSTVTLGCLVKGYLPEPVTVTWNSGTLTNGVRTFPSVRQSSGLYSLSSVVSVTSSSQPVTCNVAHPATNTKVDKTVAPSTCSKPMCPPPELPGGPSVFIFPPKPKDTLMISRTPEVTCVVVDVSQDDPEVQFTWYINNEQVRTARPPLREQQFNSTIRVVSTLPIAHQDWLRGKEFKCKVHNKALPAPIEKTISKARGQPLEPKVYTMGPPREELSSRSVSLTCMINGFYPSDISVEWEKNGKAEDNYKTTPTVLDSDGSYFLYSKLSVPTSEWQRGDVFTCSVMHEALHNHYTQKSISRSPGK
light: MDTRAPTQLLGLLLLWLPGARCADIVVTQTPSSVSAAVGGTVTIKCQASQSISNYFSWYQQKPGQPPKLLIYRASTLASGVPSRFKGSGSGTEFTLTISDLECADAATYYCQCTYGRSNSNFFYGFGGGTEVVVKGDPVAPTVLIFPPAADQVATGTVTIVCVANKYFPDVTVTWEVDGTTQTTGIENSKTPQNSADCTYNLSSTLTLTSTQYNSHKEYTCKVTQGTTSVVQSFNRGDC

Assays:
α1β1, α2β1 and/or α10β1 = test: Counter-screen for cross-reactivity to other collagen receptors; type: binding, human; conditions: cross-reactivity to α1β1, α2β1, α10β1
Procedure, shortened: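 Rat- and mouse-derived anti-α11β1 hybridoma supernatants or clones, first identified by ELISA against human and mouse α11β1, were counter-screened by ELISA against human α1β1, α2β1 and α10β1 to assess cross-reactivity to related collagen receptors.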

[1] = biological target: T1, α11β1 expressed on the surface of CHO-K1 cells; test: FACS antibody binding to CHO-K1 cells expressing human α11; conditions: binding Yes/No
Procedure, shortened: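 Wild-type or human α11-transfected CHO-K1 cells (endogenous β1) were incubated with antibody at varied concentrations for 30 min at 4° C, then secondary antibody (1:100) 30 min at 4° C. Cells were PFA-fixed and read by flow cytometry; binding EC50 estimated from FACS data.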

[2] = test system: Human Pulmonary Fibroblasts; test: Fibroblast-to-Myofibroblasts Transition (FMT), αSMA expression; type: cell-based; conditions: Yes/No
Procedure, shortened: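 Cells seeded at 20,000/well, serum-starved 24 h, then given TGFβ-1 with or without anti-α11 antibodies for 48 h; polyclonal anti-α11 and isotype IgG served as controls. Fixed, permeabilized cells were stained for αSMA and analysed by flow cytometry (single-cell gMFI). Values are normalized to untreated control as % inhibition.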

Molecule | Off Target (α1β1, α2β1 and/or α10β1) | CHO-K1 FACS [1] | Inhibition of FMT [2]
B1 | No | Yes | Yes
B2 | No | Yes | No
B3 | No | Yes | No
B4 | No | Yes | No
B5 | No | Yes | Yes
B6 | No | Yes | No
